Among the data in patent US20240409638A1 (AVACTA LIFE SCIENCES, published 2024) are Kd, koff and kon values, retold here.

The target of assay [1] is T1, human serum albumin (HSA) (human, UniProt P02768 25-609).
T1 construct: The assays used bought HSA (Sigma #A37812 in the SPR work); also called HuSA
Nature of the assay: SPR, Biacore, HSA on CM5, pH 7.4; ILF XT format. As to the method: (§1) For the HSA binding kinetic analysis, HSA (Sigma #A37812) was immobilized on a CM5 chip surface using amine coupling in 10 mM sodium acetate (pH 5.0) (Cytvia). […] The chip surface was regenerated with 3 mM NaOH for 20 seconds at a flow rate of 20 μl/min. The kinetic data was blank subtracted and fit to a 1:1 Langmuir binding model (BIAcore evaluation software; Cytiva).
(§2) Protein was produced from Escherichia coli and characterized as described in Example 1. […] Kinetic analysis was carried out as described in Example 2.
For orientation: In SPR one partner is held on a chip, and binding of the other changes the refractive index at the surface.

In assay [2] the target is T1, human serum albumin (HSA). Nature of the assay: SPR (Biacore) kinetics: HSA immobilised on a CM5 chip, AFFIMER as analyte, pH 7.4. The protocol:
as §1, §2

In assay [3] the target is T2, human PD-L1-Fc (R&D Systems) (human, UniProt Q9NZQ7 19-239).
T2 construct: Bought reagent; also called huPD-L1-Fc; huPD-L1; not shown: Fc part of the bought fusion
Nature of the assay: SPR (Biacore) kinetics: human PD-L1-Fc immobilised on a CM5 chip, AFFIMER as analyte.

In assay [4] the target is T2, human PD-L1-Fc (R&D Systems). Nature of the assay: SPR (Biacore) kinetics: human PD-L1-Fc immobilised on a CM5 chip, AFFIMER as analyte (column KD (pM), the same fit as the KD (M) column).
Assay [5] addresses T1, human serum albumin (HSA). Nature of the assay: SPR, Biacore, HSA on CM5, pH 7.4; HSA-18 monomer. The protocol:
as §1, §2

T1 sequence (P02768 25-609): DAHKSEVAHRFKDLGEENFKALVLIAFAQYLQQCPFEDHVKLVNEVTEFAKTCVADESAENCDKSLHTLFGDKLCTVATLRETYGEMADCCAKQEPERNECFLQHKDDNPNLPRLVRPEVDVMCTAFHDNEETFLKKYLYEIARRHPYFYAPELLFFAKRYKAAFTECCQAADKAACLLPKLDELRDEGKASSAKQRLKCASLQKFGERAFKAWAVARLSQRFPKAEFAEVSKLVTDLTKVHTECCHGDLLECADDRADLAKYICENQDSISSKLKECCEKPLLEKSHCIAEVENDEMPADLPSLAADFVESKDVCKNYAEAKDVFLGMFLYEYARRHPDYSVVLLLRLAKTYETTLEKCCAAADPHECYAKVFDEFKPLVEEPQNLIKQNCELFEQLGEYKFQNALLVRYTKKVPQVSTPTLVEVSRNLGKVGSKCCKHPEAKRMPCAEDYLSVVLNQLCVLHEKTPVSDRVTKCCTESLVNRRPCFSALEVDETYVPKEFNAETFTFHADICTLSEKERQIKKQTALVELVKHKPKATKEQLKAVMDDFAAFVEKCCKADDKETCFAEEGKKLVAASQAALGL
T2 sequence (Q9NZQ7 19-239 limits assumed): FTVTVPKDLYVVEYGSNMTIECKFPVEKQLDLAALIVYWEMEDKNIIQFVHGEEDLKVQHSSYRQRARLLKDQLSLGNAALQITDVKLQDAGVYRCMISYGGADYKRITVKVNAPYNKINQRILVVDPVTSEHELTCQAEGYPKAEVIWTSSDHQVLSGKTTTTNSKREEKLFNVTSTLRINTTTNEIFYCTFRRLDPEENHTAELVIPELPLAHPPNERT

B1: Clone 80 XT62 (designed binder)
chain: MIPGGLSEAKPATPEIQEIVDKVKPQLEEKTGETYGKLEAVQYKTQVVRRKHFPQWPGTNYYIKVRAGDNKYMHLKVFKSLDLQPREVFQEDLVLTGYQVDKNKDDELTGFAEAAAKEAAAKEAAAKEAAAKEAAAKEAAAKMIPGGLSEAKPATPEIQEIVDKVKPQLEEKTGETYGKLEAVQYKTQVVRRKHFPQWPGTNYYIKVRAGDNKYMHLKVFKSLDLQPREVFQEDLVLTGYQVDKNKDDELTGFAEAAAKEAAAKEAAAKEAAAKEAAAKEAAAKMIPRGLSEAKPATPEIQEIVDKVKPQLEEKTNETYGKLEAVQYKTQVLADWWQAKWPHSTNYYIKVRAGDNKYMHLKVFNGPYKVHQSSGGADRVLTGYQVDKNKDDELTGF
notes: Clone 80 dimer with HSA-18 at the C-terminus; Made in E. coli; No tag is stated for this construct
Consider B1, for which the Kd in assay [1] was found to be 7.04 nM; in assay [2], 704 nM; in assay [3], 0.109 nM; in assay [4], 0.11 nM. The values for the koff in assay [2] and in assay [3] were 0.00828 s⁻¹ and 0.00015 s⁻¹, respectively. The kon stood at 11800 M⁻¹ s⁻¹ in assay [2] and 1.37e+06 M⁻¹ s⁻¹ in assay [3].

B2: HSA-18 (anti-serum albumin AFFIMER® polypeptide, XT monomer) (designed binder)
chain: MIPRGLSEAKPATPEIQEIVDKVKPQLEEKTNETYGKLEAVQYKTQVLADWWQAKWPHSTNYYIKVRAGDNKYMHLKVFNGPYKVHQSSGGADRVLTGYQVDKNKDDELTGF
notes: also called HSA-18 monomer
B2: the Kd in assay [5] turned out to be 1.09 nM. Further, in assay [2], binding was put at a Kd of 109 nM, the koff amounted to 0.0078 s⁻¹ and the kon stood at 71400 M⁻¹ s⁻¹.

Usually Kd stands for the constant that tells how readily two partners part at equilibrium. Higher therefore signals lower affinity. For orientation: koff means the rate constant with which the complex falls apart. One may read the kon as the second-order rate constant of association. High values mean faster complex formation, low ones slower complex formation.
